From US20100322948A1, “Bone morphogenetic protein (BMP)-binding domains of proteins of the repulsive guidance molecule (RGM) protein family and functional fragments thereof, and use of same” (ABBOTT GMBH & CO. KG, priority 2007, published 2010)
Ends that are not written are not given here.

Tests used:
[1] = target: T1, BMP-4 (Homo sapiens, UniProt P12644); experiment: In vitro interaction test, variant A: immobilized BMP-4, detection of binding of RGMA-Fc fusion proteins; conditions: Working Example 3, FIG. 5; detection anti-human-Fc or anti-Myc
T1 construct: purchased R&D Systems 314-BM
T1 sequence (P12644 293-408): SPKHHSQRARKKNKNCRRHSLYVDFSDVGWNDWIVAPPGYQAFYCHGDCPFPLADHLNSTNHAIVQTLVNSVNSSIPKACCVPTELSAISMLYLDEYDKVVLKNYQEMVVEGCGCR
Protocol: Test Method 4: In Vitro Interaction Test for Determining the Interaction between RGMA and BMP-2 and -4
The interaction tests were carried out as described below:
Variant A: Immobilization of the BMP-2/ or -4 Protein and Detection of the Binding of Various RGMA-Fc Fusion Proteins
1. Plate: • Immunoplate Cert. MaxiSorp F96 (Nunc, 439454)
Recombinant human BMP-2, Catalog No.: 355-BM, Company: R&D Systems; Recombinant human RGM A, R&D Systems; Prod. #2495-RM, or
Recombinant human BMP-4, Catalog No.: 314-BM, Company: R&D Systems; • Concentration: 10 μg/mL • Volume used: 2.5 μg/mL in Na2CO3; addition: 50 μL per well • 1 hour at 37° C. in damp chamber
3. Washing step: • Wash 3× with PBS/[…] Tween 20
4. Blocking: • 3% BSA in PBS/0.02% Tween, 1 hour at 37° C. in damp chamber; addition: 200 μL per well
RGMA-Fc fragments, • 1 μg/mL initial concentration, then dilution down to 1:2 using PBS/0.02% Tween20 • […] • 1 hour at 37° C. in damp chamber
6. Washing step: • Wash 3× with PBS/0.02% Tween 20
Biotin anti-human Fc (R&D-Systems), Catalog No.: 709065; 1 mg/mL; • 1:200 in 0.6% BAS/PBS-T (0.02% Tween) • Addition: 50 μL per well • 1 hour at 37° C. in damp chamber
8. Secondary antibody: Strep. POD (Roche); Catalog No.: 11089153001 • 500 U; 1:5000 in 0.6% BAS/PBS-T (0.02% Tween) • Addition: 50 μL per well • 1 hour at 37° C. in damp chamber
9. Washing step: • Wash 3× with PBS/0.02% Tween 20
ImmunoPure TMB substrate kit; Pierce, #34021 • Development period: approximately 1-30 minutes • 1:1 mixture of […]; addition: 50 μL per well
11. Stop: • 2.5 M H2SO4; addition: 50 μL per well
The test was conducted according to test method 4, variant A above, with immobilization of BMP-4 (1 mg/mL). The binding of the fusion proteins was detected using anti-human-Fc or anti-Myc anti-rabbit (Invitrogen) antibodies.
The test was conducted according to test method 4, variant A above, with immobilization of BMP-4 (1 mg/mL). The binding of the fusion proteins was detected using anti-human-antibodies.

[2] = tested on: BMP signalling (rhBMP-2-induced luciferase activity); experiment: BRE-Luc assay on BMP signalling in BMP-responsive C3H10-B12 cells; assay type: cell-based; conditions: combined with rhBMP-2 at 50 ng/ml, 24 h
Protocol: Evaluation of the Agonistic or Antagonistic Effect of h RMG A on BMP Signalling using BRE-Luc Assay
a) Materials: • Three compounds were provided at 200 μg/ml.
fragment #788 (IgK/hRGM A 47-422/Xa cleavage site/Fc) • recombinant h BMP-2 (from CHO cells; #355-BM) and monoclonal anti-human BMP2/4 antibodies (#MAB3552) were obtained from R&D Systems Europe, Lille, France • Bright-Glo Luciferase assay kit were purchased from Promega
All experiments were performed in triplicate, and were repeated at two separate times.

[3] = target: T2, Recombinant human BMP-4 (human, UniProt P12644 293-408); experiment: ELISA, BMP-4 immobilised, fragment titrated, detection with anti-human Fc antibody
T2 construct: Bought protein; also called hBMP-4
T2 sequence (looked up): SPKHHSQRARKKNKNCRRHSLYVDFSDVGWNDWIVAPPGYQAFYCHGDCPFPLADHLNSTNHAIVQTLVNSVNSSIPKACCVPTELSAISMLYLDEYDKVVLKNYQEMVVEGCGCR
Text: The binding of the fusion proteins was detected using anti-human-antibodies.

[4] = tested on: SH-SY5Y cells; experiment: Neurite growth assay using SH-SY5Y cells (test method 1); assay type: cell-based, human; conditions: FIG. 7A
Text: Test Method 1: Illustration of the Effect of RGM Peptides in the Neurite Growth Assay, Using SH-SY5Y Cells
SH-SY5Y cells are human neuroblastoma cells. Blastomas are embryonic tumors which originate during tissue and organ formation. The origin of the blastoma cells is frequently unknown, since in early embryonic states the differentiation of many cells is still premature; i.e., the blastoma cells are a heterogeneous cell population. The cells of a neuroblastoma, referred to as neuroblasts, originate from the neural crest (structure of the embryonic state) from the autonomous nerve tissue, and are practically arrested in an immature stage. The cells in the present case originated from a clonal subculture of the neuroepitheliomal cell line SK-N-SH which were isolated in 1970 in a bone marrow biopsy of a child with metastases of the neuroblastomas.
Culture Medium for SH-SY5Y Cells (ECACC No. 94030304)
The medium was sterile-filtered using a Nunc 500-mL filter, and was stored in a refrigerator at 4° C. until used. Before use, the medium was heated to 37° C. in a water bath.
SH-SY5Y cells are epithelial, neuron-like cells which slowly adherently grow in a monolayer and never attain a confluence of 100% (maximum 80%). The cell culture was split 1:3 two times per week. Isolation of the cells requires incubation with trypsin for 1-3 minutes in an incubator.
Since this is a population of still immature precursor cells, it is possible to differentiate the cells using retinoic acid, so that a certain percentage of the cells acquire neurite-like extensions. For this purpose the culture was incubated in the medium with 10 μM retinoic acid directly in the culture dish or flask, depending on the test, for 3 days.
Microtiter plates (96-well) (containing collagen I-coated plates) were additionally coated with the hRGM A fragments. After washing two times with PBS the cells were seeded. […] In the quantitative analysis the SH-SY5Y cells grown on hRGM A fragments were compared to SH-SY5Y grown on collagen I alone. The neurite length of the cells was automatically measured and used for the analysis. […]

[5] = tested on: NTera-2 cells; experiment: Neurite growth test using NTera-2 cells (test method 2); assay type: cell-based, human; conditions: FIG. 7B
Text: Test Method 2: Illustration of the Effect of RGM Peptides in the Neurite Growth Test, Using NTera-2 Cells
The human pluripotent cancer cell line NTera2 (DSMZ ACC527) is established as a cell culture model. Neurites grow from cell aggregates and form a corona of neurites around the particular aggregate.
NTera-2 cells are human embryonic teratocarcinoma cells. A carcinoma is a cancerous tumor, whereas a teratoma or teratocarcinoma is a mixed tumor of the germ cells composed of various differentiated and undifferentiated tissues, and therefore, the same as for the SH-SY5Y culture, comprises a heterogeneous population. The tumor is usually present in an encapsulated form in the various types, such as hair, skin, teeth, muscle, and nerve tissue. The tumors typically originate in the ovaries, testes, abdominal cavity, or brain. The cell line was cloned from the Tera-2 line, obtained from a metastatic teratocarcinoma in a person.
NTera-2 cells are epithelial, adherently growing cells which form a monolayer. Due to the large number of granular particles which they contain, NTera-2 cells may be easily differentiated from the other cells. The cells were cultivated by 1:5 splitting twice a week. The cells of this mixed culture may be differentiated using retinoic acid in neuronal cells.
Culture Medium Fur Growth […]
In order to differentiate the cells it was necessary to introduce antibiotic into the culture medium of the cell line due to the fact that the cells remained in the same culture flask for three weeks. Previously, the undifferentiated culture had been detrypsinated and the cell count determined using a Neubauer counting chamber. […] 25 μL retinoic acid (10 μM) was readded to the medium under dim light conditions. […]
The culture was stored in an incubator at 37° C. with 5% CO2 gassing, and the medium was changed at the beginning and at the end of the week. […] After three weeks the cells were differentiated and were ready for use in experiments. […]
Different plate formats were used for the tests. For the isolation of protein, 6-well plates were necessary for recovering a sufficient quantity. […]

Molecule: fragment #785: Fc fusion protein of human RGM A amino acids 47-90 (PCKILKCNSEFWSATSGSHAPASDDTPEFCAALRSYALCTRRTA; cysteine pairing not given here; also: Fc fusion protein (dimerising Fc))
- binding to immobilized BMP-4 [1]: Significant concentration-dependent binding
- effect on BMP-2-induced luciferase activity [2]: did not significantly modify

B1: 47-90-Fc (#785) (Fc fusion)
chain: PCKILKCNSEFWSATSGSHAPASDDTPEFCAALRSYALCTRRTA
notes: Expressed in HEK293F cells; IgK leader left out; also called fragment 47-90; not shown: Factor Xa site from the vector; human IgG Fc (hIgG lambda hc 257-Stop)
- binding result [3]: binds

B2: 316-386-Fc (#790) (Fc fusion)
chain: LRGCPLNQQIDFQAFHTNAEGTGARRLAAASPAPTAPETFPYETAVAKCKEKLPVEDLYYQACVFDLLTTG
notes: also called fragment #790; not shown: Factor Xa site from the vector; human IgG Fc (hIgG lambda hc 257-Stop)
- binding result [3]: binds

B3: fragment #790: Fc fusion protein of human RGM A amino acids 316-386 (protein)
chain: LRGCPLNQQIDFQAFHTNAEGTGARRLAAASPAPTAPETFPYETAVAKCKEKLPVEDLYYQACVFDLLTTG
modifications: left off: small tags and cut ends; a dimerising Fc or GST
- binding to immobilized BMP-4 [1]: Significant concentration-dependent binding
- inhibition of neurite growth [4]: inhibit the neurite growth
- inhibition of neurite growth [5]: inhibit the neurite growth
